Data: publication PMC9482650, “Quantitative fragmentomics allow affinity mapping of interactomes” (Nature Communications, 2022)

T1: APBA3_1, O96018
T1 sequence (O96018 389-490, limits assumed, looked up): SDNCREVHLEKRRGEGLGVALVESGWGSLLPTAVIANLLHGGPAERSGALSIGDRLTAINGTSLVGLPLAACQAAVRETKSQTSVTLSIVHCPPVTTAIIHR

T2: DFNB31_1, Q9P202
T2 sequence (Q9P202 135-233, limits assumed, looked up): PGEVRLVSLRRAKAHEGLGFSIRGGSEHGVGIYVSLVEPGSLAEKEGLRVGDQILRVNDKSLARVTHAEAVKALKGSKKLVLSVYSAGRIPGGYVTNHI

T3: GRIP1_3, Q9Y3R0
T3 sequence (Q9Y3R0 247-346, limits assumed, looked up): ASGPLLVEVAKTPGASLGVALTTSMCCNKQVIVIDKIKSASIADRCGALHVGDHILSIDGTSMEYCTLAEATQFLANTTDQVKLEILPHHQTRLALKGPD

T4: GRIP1_5, Q9Y3R0
T4 sequence (Q9Y3R0 568-668, limits assumed, looked up): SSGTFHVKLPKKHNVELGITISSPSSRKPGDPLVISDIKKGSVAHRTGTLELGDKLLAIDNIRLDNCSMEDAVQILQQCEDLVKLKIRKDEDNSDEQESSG

T5: PDZRN3_1, Q9UPQ7
T5 sequence (Q9UPQ7 244-349, limits assumed, looked up): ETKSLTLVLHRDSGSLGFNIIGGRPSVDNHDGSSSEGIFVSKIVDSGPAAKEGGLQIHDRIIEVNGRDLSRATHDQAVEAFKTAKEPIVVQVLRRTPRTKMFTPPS

T6: RADIL, Q96JH8
T6 sequence (Q96JH8 971-1071, limits assumed, looked up): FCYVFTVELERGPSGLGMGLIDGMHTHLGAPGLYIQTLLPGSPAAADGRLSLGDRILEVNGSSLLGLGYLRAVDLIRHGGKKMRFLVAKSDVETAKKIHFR

T7: SNTB1, Q13884
T7 sequence (Q13884 107-205, limits assumed, looked up): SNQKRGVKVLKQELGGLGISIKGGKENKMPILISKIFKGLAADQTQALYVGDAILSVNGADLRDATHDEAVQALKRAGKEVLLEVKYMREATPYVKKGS

T8: TX1BP3, O14907
T8 sequence (O14907 10-122, limits assumed, looked up): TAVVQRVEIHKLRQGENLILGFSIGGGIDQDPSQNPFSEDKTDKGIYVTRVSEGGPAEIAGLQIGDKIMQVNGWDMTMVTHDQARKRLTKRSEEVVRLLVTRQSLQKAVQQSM

B1: FAM71C, Q8NEG0 (peptide)
chain: STYCDYTIEI
B2: FCHSD2, O94868 (peptide)
chain: KIEDVEITLV
B3: GAS2L2, Q8NHY3 (peptide)
chain: PLPPEEESWV
B4: DUSP5, Q16690 (peptide)
chain: RSPVATATSC
B5: NPSR1, Q6W5P4 (peptide)
chain: MQILSKPEFI

Experiments:
Assay in all cases: holdup assay
Design in all cases: key: below the threshold = too weak to quantify, mostly under pKd 3.1 to 4
Conditions in all cases: plain residues with an end cap or a label only (N-terminal biotin on a linker: ado-ado)
APBA3_1, O96018 = target: T1, APBA3_1, O96018
DFNB31_1, Q9P202 = target: T2, DFNB31_1, Q9P202
DLG4_3, P78352 = target: DLG4_3, P78352
Chain of DLG4_3, P78352 (P78352 306-403): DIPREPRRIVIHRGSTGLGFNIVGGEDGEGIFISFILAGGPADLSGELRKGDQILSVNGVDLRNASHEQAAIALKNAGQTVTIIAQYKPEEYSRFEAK

DLG5_1, Q8TDM6 = target: DLG5_1, Q8TDM6
Chain of DLG5_1, Q8TDM6 (Q8TDM6 617-713): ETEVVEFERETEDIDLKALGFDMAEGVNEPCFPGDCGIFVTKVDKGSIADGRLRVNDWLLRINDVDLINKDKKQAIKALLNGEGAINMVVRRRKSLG

FRMPD4, Q14CM0 = target: FRMPD4, Q14CM0
Chain of FRMPD4, Q14CM0 (Q14CM0 67-160): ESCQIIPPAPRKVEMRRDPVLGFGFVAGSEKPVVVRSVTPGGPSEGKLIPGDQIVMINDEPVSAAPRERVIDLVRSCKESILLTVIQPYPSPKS

GIPC2, Q8TF65 = target: GIPC2, Q8TF65
Chain of GIPC2, Q8TF65 (Q8TF65 112-203): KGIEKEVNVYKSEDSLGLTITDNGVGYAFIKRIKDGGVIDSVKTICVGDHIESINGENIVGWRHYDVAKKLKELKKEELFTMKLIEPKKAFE

GORASP1, Q9BQQ3 = target: GORASP1, Q9BQQ3
Chain of GORASP1, Q9BQQ3 (Q9BQQ3 1-208): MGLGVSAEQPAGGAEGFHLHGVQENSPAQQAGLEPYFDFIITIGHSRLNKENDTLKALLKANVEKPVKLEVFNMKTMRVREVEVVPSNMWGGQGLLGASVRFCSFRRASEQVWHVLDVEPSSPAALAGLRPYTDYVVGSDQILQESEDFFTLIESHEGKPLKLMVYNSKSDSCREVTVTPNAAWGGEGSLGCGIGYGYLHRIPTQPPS

GRIP1_3, Q9Y3R0 = target: T3, GRIP1_3, Q9Y3R0
GRIP1_5, Q9Y3R0 = target: T4, GRIP1_5, Q9Y3R0
GRIP2_4, Q9C0E4 = target: GRIP2_4, Q9C0E4
Chain of GRIP2_4, Q9C0E4 (Q9C0E4 446-548): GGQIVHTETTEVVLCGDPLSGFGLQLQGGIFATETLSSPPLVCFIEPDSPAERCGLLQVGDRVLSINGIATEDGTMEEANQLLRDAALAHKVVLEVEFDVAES

GRIP2_7, Q9C0E4 = target: GRIP2_7, Q9C0E4
Chain of GRIP2_7, Q9C0E4 (Q9C0E4 934-1023): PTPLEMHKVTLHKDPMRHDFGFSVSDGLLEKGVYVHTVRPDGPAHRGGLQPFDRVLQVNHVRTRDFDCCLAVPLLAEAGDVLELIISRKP

IL16_4, Q14005 = target: IL16_4, Q14005
Chain of IL16_4, Q14005 (Q14005 1229-1329): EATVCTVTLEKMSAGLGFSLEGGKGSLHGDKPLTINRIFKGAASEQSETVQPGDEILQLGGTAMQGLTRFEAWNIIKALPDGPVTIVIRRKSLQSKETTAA

Inadl_1, Q8NI35 = target: Inadl_1, Q8NI35
Chain of Inadl_1, Q8NI35 (Q8NI35 113-229): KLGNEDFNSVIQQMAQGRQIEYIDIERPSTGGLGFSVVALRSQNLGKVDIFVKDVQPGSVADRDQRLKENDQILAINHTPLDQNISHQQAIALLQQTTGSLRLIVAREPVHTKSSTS

Inadl_6, Q8NI35 = target: Inadl_6, Q8NI35
Chain of Inadl_6, Q8NI35 (Q8NI35 1058-1167): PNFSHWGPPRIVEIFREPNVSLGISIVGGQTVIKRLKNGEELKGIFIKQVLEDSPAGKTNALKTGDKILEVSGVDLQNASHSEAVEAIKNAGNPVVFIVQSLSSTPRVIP

LNX1_1, Q8TBB1 = target: LNX1_1, Q8TBB1
Chain of LNX1_1, Q8TBB1 (Q8TBB1 261-371): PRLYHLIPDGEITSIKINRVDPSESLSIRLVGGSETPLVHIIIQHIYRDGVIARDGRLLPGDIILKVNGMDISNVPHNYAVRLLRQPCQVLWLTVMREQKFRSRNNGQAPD

LNX1_2, Q8TBB1 = target: LNX1_2, Q8TBB1
Chain of LNX1_2, Q8TBB1 (Q8TBB1 371-470): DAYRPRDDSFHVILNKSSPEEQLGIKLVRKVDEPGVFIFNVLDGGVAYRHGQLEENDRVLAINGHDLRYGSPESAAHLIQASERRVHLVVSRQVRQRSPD

LNX1_3, Q8TBB1 = target: LNX1_3, Q8TBB1
Chain of LNX1_3, Q8TBB1 (Q8TBB1 500-596): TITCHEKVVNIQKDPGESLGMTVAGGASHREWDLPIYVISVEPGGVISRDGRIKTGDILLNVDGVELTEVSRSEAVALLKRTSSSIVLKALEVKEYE

MAGI1_1, Q96QZ7 = target: MAGI1_1, Q96QZ7
Chain of MAGI1_1, Q96QZ7 (Q96QZ7 1-106): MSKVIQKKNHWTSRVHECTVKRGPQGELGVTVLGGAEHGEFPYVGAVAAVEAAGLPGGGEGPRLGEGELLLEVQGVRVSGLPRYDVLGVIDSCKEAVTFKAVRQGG

MAGI1_2, Q96QZ7 = target: MAGI1_2, Q96QZ7
Chain of MAGI1_2, Q96QZ7 (Q96QZ7 456-580): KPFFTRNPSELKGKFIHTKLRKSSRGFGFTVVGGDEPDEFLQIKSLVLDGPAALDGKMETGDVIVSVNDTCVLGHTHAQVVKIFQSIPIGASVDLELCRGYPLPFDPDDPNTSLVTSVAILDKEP

MAGI2_5, Q86UL8 = target: MAGI2_5, Q86UL8
Chain of MAGI2_5, Q86UL8 (Q86UL8 915-1017): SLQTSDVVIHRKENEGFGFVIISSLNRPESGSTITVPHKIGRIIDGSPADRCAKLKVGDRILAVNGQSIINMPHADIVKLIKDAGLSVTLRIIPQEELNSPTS

MAGI2_6, Q86UL8 = target: MAGI2_6, Q86UL8
Chain of MAGI2_6, Q86UL8 (Q86UL8 1141-1229): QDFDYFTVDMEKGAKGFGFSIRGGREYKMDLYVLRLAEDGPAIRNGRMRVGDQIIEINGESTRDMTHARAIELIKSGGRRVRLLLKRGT

PDZRN3_1, Q9UPQ7 = target: T5, PDZRN3_1, Q9UPQ7
PDZRN4_1, Q6ZMN7 = target: PDZRN4_1, Q6ZMN7
Chain of PDZRN4_1, Q6ZMN7 (Q6ZMN7 213-318): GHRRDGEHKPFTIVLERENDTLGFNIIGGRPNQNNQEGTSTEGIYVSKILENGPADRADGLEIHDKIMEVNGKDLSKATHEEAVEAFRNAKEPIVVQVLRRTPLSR

PICK1, Q9NRD5 = target: PICK1, Q9NRD5
Chain of PICK1, Q9NRD5 (Q9NRD5 17-115): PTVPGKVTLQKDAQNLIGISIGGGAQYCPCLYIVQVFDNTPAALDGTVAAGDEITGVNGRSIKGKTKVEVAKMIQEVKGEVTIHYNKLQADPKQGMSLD

RADIL, Q96JH8 = target: T6, RADIL, Q96JH8
SCRIB_3, Q14160 = target: SCRIB_3, Q14160
Chain of SCRIB_3, Q14160 (Q14160 999-1103): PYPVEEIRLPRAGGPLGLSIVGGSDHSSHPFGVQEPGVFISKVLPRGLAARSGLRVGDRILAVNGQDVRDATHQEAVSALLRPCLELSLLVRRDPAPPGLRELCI

SNTB1, Q13884 = target: T7, SNTB1, Q13884
SNX27, Q96L92 = target: SNX27, Q96L92
TX1BP3, O14907 = target: T8, TX1BP3, O14907

Binder | pKd (APBA3_1, O96018) | pKd (DFNB31_1, Q9P202) | pKd (DLG4_3, P78352) | pKd (DLG5_1, Q8TDM6) | pKd (FRMPD4, Q14CM0) | pKd (GIPC2, Q8TF65) | pKd (GORASP1, Q9BQQ3) | pKd (GRIP1_3, Q9Y3R0) | pKd (GRIP1_5, Q9Y3R0) | pKd (GRIP2_4, Q9C0E4) | pKd (GRIP2_7, Q9C0E4) | pKd (IL16_4, Q14005) | pKd (Inadl_1, Q8NI35) | pKd (Inadl_6, Q8NI35) | pKd (LNX1_1, Q8TBB1) | pKd (LNX1_2, Q8TBB1) | pKd (LNX1_3, Q8TBB1) | pKd (MAGI1_1, Q96QZ7) | pKd (MAGI1_2, Q96QZ7) | pKd (MAGI2_5, Q86UL8) | further results
B1 | below the threshold | below the threshold | below the threshold | below the threshold | below the threshold | 3.49 | 4.72 | below the threshold | below the threshold | below the threshold | below the threshold | below the threshold | 3.56 | below the threshold | below the threshold | 4.35 | below the threshold | below the threshold | below the threshold | below the threshold | pKd (MAGI2_6, Q86UL8): below the threshold; pKd (PDZRN3_1, Q9UPQ7): below the threshold; pKd (PDZRN4_1, Q6ZMN7): below the threshold; pKd (PICK1, Q9NRD5): below the threshold; pKd (RADIL, Q96JH8): 4.58; pKd (SCRIB_3, Q14160): 4.06; pKd (SNTB1, Q13884): below the threshold; pKd (SNX27, Q96L92): 3.56; pKd (TX1BP3, O14907): below the threshold
B2 | below the threshold | 3.48 | below the threshold | 3.52 | below the threshold | below the threshold | 3.91 | below the threshold | below the threshold | below the threshold | below the threshold | below the threshold | below the threshold | 4.23 | below the threshold | 4.55 | below the threshold | below the threshold | below the threshold | 5.47 | pKd (MAGI2_6, Q86UL8): 4.24; pKd (PDZRN3_1, Q9UPQ7): below the threshold; pKd (PDZRN4_1, Q6ZMN7): 3.64; pKd (PICK1, Q9NRD5): below the threshold; pKd (RADIL, Q96JH8): 5.03; pKd (SCRIB_3, Q14160): 3.48; pKd (SNTB1, Q13884): 3.95; pKd (SNX27, Q96L92): 5.01; pKd (TX1BP3, O14907): 3.98
B3 | below the threshold | 4.46 | below the threshold | below the threshold | 3.55 | 4.2 | 4.22 | below the threshold | below the threshold | below the threshold | 4.09 | below the threshold | 3.55 | 5.43 | below the threshold | 3.94 | below the threshold | below the threshold | below the threshold | 4.92 | pKd (MAGI2_6, Q86UL8): 5.88; pKd (PDZRN3_1, Q9UPQ7): 3.52; pKd (PDZRN4_1, Q6ZMN7): 4.13; pKd (PICK1, Q9NRD5): below the threshold; pKd (RADIL, Q96JH8): 4.55; pKd (SCRIB_3, Q14160): 4.99; pKd (SNTB1, Q13884): 4.86; pKd (SNX27, Q96L92): 5.58; pKd (TX1BP3, O14907): 4.62
B4 | below the threshold | below the threshold | below the threshold | below the threshold | below the threshold | 3.6 | below the threshold | below the threshold | below the threshold | below the threshold | below the threshold | below the threshold | below the threshold | below the threshold | below the threshold | below the threshold | below the threshold | below the threshold | below the threshold | below the threshold | pKd (MAGI2_6, Q86UL8): below the threshold; pKd (PDZRN3_1, Q9UPQ7): below the threshold; pKd (PDZRN4_1, Q6ZMN7): below the threshold; pKd (PICK1, Q9NRD5): 3.97; pKd (RADIL, Q96JH8): below the threshold; pKd (SCRIB_3, Q14160): 3.56; pKd (SNTB1, Q13884): below the threshold; pKd (SNX27, Q96L92): below the threshold; pKd (TX1BP3, O14907): below the threshold
B5 | below the threshold | below the threshold | 3.49 | below the threshold | below the threshold | below the threshold | 4.15 | below the threshold | below the threshold | below the threshold | 3.69 | 3.7 | below the threshold | below the threshold | below the threshold | below the threshold | below the threshold | below the threshold | below the threshold | below the threshold | pKd (MAGI2_6, Q86UL8): below the threshold; pKd (PDZRN3_1, Q9UPQ7): below the threshold; pKd (PDZRN4_1, Q6ZMN7): below the threshold; pKd (PICK1, Q9NRD5): 4.08; pKd (RADIL, Q96JH8): 4.42; pKd (SCRIB_3, Q14160): 3.59; pKd (SNTB1, Q13884): below the threshold; pKd (SNX27, Q96L92): below the threshold; pKd (TX1BP3, O14907): below the threshold
